# Data: patent US20100203552
# Legend:
# [1] = system: GST-Bim polypeptide [GST: P08515]
# Target sequence in this assay (P08515 whole entry, looked up, the tested form may be a part): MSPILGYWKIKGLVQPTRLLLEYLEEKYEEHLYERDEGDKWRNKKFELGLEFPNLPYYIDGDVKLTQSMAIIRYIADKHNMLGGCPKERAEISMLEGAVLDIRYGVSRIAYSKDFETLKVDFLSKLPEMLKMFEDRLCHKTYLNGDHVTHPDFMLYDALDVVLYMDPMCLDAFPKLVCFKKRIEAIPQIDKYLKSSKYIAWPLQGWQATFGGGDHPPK
# [2] = system: phosphorylated GST-Bim fusion protein [GST: P08515]
# [3] = target: GST-Bim polypeptide [GST: P08515]; remark: listed apart in the source
# Target sequence in this assay (P08515 whole entry, looked up, the tested form may be a part): as above
# Chain of phosphorylated GST-Bim fusion protein [GST: P08515] (P08515 whole entry, looked up, the tested form may be a part): as above
molecule,measurement,setting,value
Myc-tagged TRIM2 (myc-TRIM2),Bim ubiquitination,[1],Incubation of TRIM2 polypeptide with Bim resulted in low levels of Bim ubiquitination
same,Bim ubiquitination,[2],addition of active MAPK to the reaction enhanced Bim ubiquitination
TRIM2 protein from rat brain lysate / rat cortical neuronal cell lysates (protein) MQRAGSRTAGPTCQWSRMASEGASIPSPVVRQIDKQFLICSICLERYKNPKVLPCLHTFCERCLQNYIPAHSLTLSCPVCRQTSILPEKGVAALQNNFFITNLMDVLQRTPGSNGEDPSILQTVTAVAAGKPLSCPNHDGNVMEFYCQSCETAMCRECTEGEHAEHPTVPLKDVVEQHKASLQVQLDAVNKRLPEIDSALQFISEIIHQLTNQKASIVDDIHSTFDELQKTLNVRKSVLLMELEVNYGLKHKVLQSQLDTLLQGQESIKSCSNFTAQALNHGTETEVLLVKKQMSEKLNELADQDFPLHPRENDQLDFIVETEGLKKSIHNLGTILTTNAVASETVATGEGLRQTIIGQPMSVTITTKDKDGELCKTGNAYLTAELSTPDGSVADGEILDNKNGTYEFLYTVQKEGDFTLSLRLYDQHIRGSPFKLKVIRSADVSPTTEGVKRRVKSPGSGHVKQKAVKRPASMYSTGKRKENPIEDDLIFRVGTKGRNKGEFTNLQGVAASTSGKILIADSNNQCVQIFSNDGQFKSRFGIRGRSPGQLQRPTGVAVHPSGDIIIADYDNKWVSIFSNDGKFKTKIGSGKLMGPKGVSVDRNGHIIVVDNKACCVFIFQPNGKIVTRFGSRGNGDRQFAGPHFAAVNSSNEIIITDFHNHSVKVFNQEGEFMLKFGSNGEGNGQFNAPTGVAVDSNGNIIVADWGNSRIQVFDGSGSFLSYINTSADPLYGPQGLALTSDGHVVVADSGNHCFKVYRYLQ,Bim ubiquitination (anti-ubiquitin immunoblot of immunoprecipitated GST-Bim),[3],immunodepletion of TRIM2 protein reduces Bim ubiquitination in lysates from preconditioned cells to that of control lysates
